No end group written: not given here.

The chains are these.
B1: ADP101 (protein)
chain: MWSTRSPNSTAWPLSLEPDPGMASASTTMHTTTIAEPDPGMSGWPDGRMETSTPTIMD
modifications: also: human Fc-tagged dimer
B2: ADP396 (protein)
chain: PSLIKQQVLKNVRIDPSSLSFNMWKEIPIPFYLSVYFFDVMNPSEILKGEKPQVRERGPYVYREFRHKSNITFNNNDTVSFLEYRTFQFQPSKSHGSESDYIVMPNILVLGAAVMMENKPMTLKLIMTLAFTTLGERAFMNRTVGEIMWGYKDPLVNLINKYFPGMFPFKDKFGLFAELNNSDSGLFTVFTGVQNISRIHLVDKWNGLSKVDFWHSDQCNMINGTSGQMWPPFMTPESSLEFYSPEACRSMKLMYKESGVFEGIPTYRFVAPKTLFANGSIYPPNEGFCPCLESGIQNVSTCRFSAPLFLSHPHFLNADPVLAEAVTGLHPNQEAHSLFLDIHPVTGIPMNCSVKLQLSLYMKSVAGIGQTGKIEPVVLPLLWFAESGAMEGETLHTFYTQLVLMPKVMHY
modifications: bait human Fc-tagged dimer
B3: ADP348 (protein)
chain: MAASAGAGAVIAAPDSRRWLWSVLAAALGLLTAGVSALEVYTPKEIFVANGTQGKLTCKFKSTSTTGGLTSVSWSFQPEGADTTVSFFHYSQGQVYLGNYPPFKDRISWAGDLDKKDASINIENMQFIHNGTYICDVKNPPDIVVQPGHIRLYVVEKENLPVFP
modifications: bait human Fc-tagged dimer
B4: ADP156 (protein)
chain: MAILSFLPVLATESDWADCKSPQPWGHMLLWTAVLFLAPVAGTPAAPPKAVLKLEPQWINVLQEDSVTLTCRGTHSPESDSIQWFHNGNLIPTHTQPSYRFKANNNDSGEYTCQTGQTSLSDPVHLTVLSEWLVLQTPHLEFQEGETIVLRCHSWKDKPLVKVTFFQNGKSKKFSRSDPNFSIPQANHSHSGDYHCTGNIGYTLYSSKPVTITVQAPSSSPM
modifications: bait human Fc-tagged dimer
B5: ADP288 (protein)
chain: MDHSHHMGMSYMDSNSTMQPSHHHPTTSASHSHGGGDSSMMMMPMTFYFGFKNVELLFSGL
modifications: also: human Fc-tagged dimer
B6: ADP365 (protein)
chain: MALGSPGLLFLLFSSLRADTQEKEVRAMVGSDVELSCACPEGSRFDLNDVYVYWQTSESKTVVTYHIPQNSSLENVDSRYRNRALMSPAGMLRGDFSLRLFNVTPQDEQKFHCLVLSQSLGFQEVLSVEVTLHVAANFSVPVVSAPHSPSQDELTFTCTSINGYPRPNVYWINKTDNSLLDQALQNDTVFLNMRGLYDVVSVLRIARTPSVNIGCCIENVLLQQNLTVGSQTGNDIGERDKITENPVSTG
modifications: bait human Fc-tagged dimer
B7: ADP301 (protein)
chain: MAKLIALTLLGMGLALFRNHQSSYQTRLNALREVQPVELPNCNLVKGIETGSEDLEILPNGLAFISSGLKYPGIKSFNPNSPGKILLMDLNEEDPTVLELGITGSKFDVSSFNPHGISTFTDEDNAMYLLVVNHPDAKSTVELFKFQEEEKSLLHLKTIRHKLLPNLNDIVAVGPEHFYGTNDHYFLDPYLQSWEMYLGLAWSYVVYYSPSEVRVVAEGFDFANGINISPDGKYVYIAELLAHKIHVYEKHANWTLTPLKSLDFNTLVDNISVDPETGDLWVGCHPNGMKIFFYDSENPPASEVLRIQNILTEEPKVTQVYAENGTVLQGSTVASVYKGKLLIGTVFHKALYCEL
modifications: bait human Fc-tagged dimer
B8: ADP322 (protein)
chain: MAALGPALLQALWAGWVLTLQPLPPTAFTPNGTYLQHLARDPTSGTLYLGATNFLFQLSPGLQLEATVSTGPVLDSRDCLPPVMPDECPQAQPTNNPNQLLLVSPGALVVCGSVHQGVCEQRRLGQLEQLLLRPERPGDTQYVAANDPAVSTVGLVAQGLAGEPLLFVGRGYTSRGVGGGIPPITTRALWPPDPQAAFSYEETAKLAVGRLSEYSHHFVSAFARGASAYFLFLRRDLQAQSRAFRAYVSRVCLRDQHYYSYVELPLACEGGRYGLIQAAAVATSREVAHGEVLFAAFSSAAPPTVGRPPSAAAGASGASALCAFPLDEVDRLANRTRDACYTREGRAEDGTEVAYIEYDVNSDCAQLPVDTLDAYPCGSDHTPSPMASRVPLEATPILEWPGIQLTAVAVTMEDGHTIAFLGDSQGQLHRVYLGPGSDGHPYSTQSIQQGSAVSRDLTFDGTFEHLYVMTQSTLLKVPVASCAQHLDCASCLAHRDPYCGWCVLLGRCSRRSECSRGQGPEQWLWSFQPELGCLQVAAMSPANISREETREVFLSVPDLPPLWPGESYSCHFGEHQSPALLTGSGVMCPSPDPSEAPVLPRGADYVSVSVELRFGAVVIAKTSLSFYDCVAVTELRPSAQCQACVSSRWGCNWCVWQHLCTHKASCDAGPMVASHQSPLVSPDPPARGGPSPSPPTAPKALATPAPDTLPVEPGAPSTATASDISPGASPSLLSPWGPWAGSGSISSPGSTGSPLHEEPSPPSPQNGPGTAVPAPTDFRPSATPEDLLASPLSPSEVAAVPPADPGPEALHPTVPLDLPPATVPATTFPGAMGSVKPALDWLTREGGELPEADEWTGGDAPAFSTSTLLSGDGDSAELEGPPAPLILPSSLDYQYDTPGLWELEEATLGASSCPCVESVQGSTLMPVHVEREIRLLGRNLHLFQDGPGDNECVMELEGLEVVVEARVECEPPPDTQCHVTCQQHQLSYEALQPELRVGLFLRRAGRLRVDSAEGLHVVLYDCSVGHGDCSRCQTAMPQYGCVWCEGERPRCVTREACGEAEAVATQCPAPLIHSVEPLTGPVDGGTRVTIRGSNLGQHVQDVLGMVTVAGVPCAVDAQEYEVSSSLVCITGASGEEVAGATAVEVPGRGRGVSEHDFAYQDPKVHSIFPARGPRAGGTRLTLNGSKLLTGRLEDIRVVVGDQPCHLLPEQQSEQLRCETSPRPTPATLPVAVWFGATERRLQRGQFKYTLDPNITSAGPTKSFLSGGREICVRGQNLDVVQTPRIRVTVVSRMLQPSQGLGRRRRVVPETACSLGPSCSSQQFEEPCHVNSSQLITCRTPALPGLPEDPWVRVEFILDNLVFDFATLNPTPFSYEADPTLQPLNPEDPTMPFRHKPGSVFSVEGENLDLAMSKEEVVAMIGDGPCVVKTLTRHHLYCEPPVEQPLPRHHALREAPDSLPEFTVQMGNLRFSLGHVQYDGESPGAFPVAAQ
modifications: bait human Fc-tagged dimer
B9: ADP150 (protein)
chain: MALQLWALTLLGLLGAGASLRPRKLDFFRSEKELNHLAVDEASGVVYLGAVNALYQLDAKLQLEQQVATGPALDNKKCTPPIEASQCHEAEMTDNVNQLLLLDPPRKRLVECGSLFKGICALRALSNISLRLFYEDGSGEKSFVASNDEGVATVGLVSSTGPGGDRVLFVGKGNGPHDNGIIVSTRLLDRTDSREAFEAYTDHATYKAGYLSTNTQQFVAAFEDGPYVFFVFNQQDKHPARNRTLLARMCREDPNYYSYLEMDLQCRDPDIHAAAFGTCLAASVAAPGSGRVLYAVFSRDSRSSGGPGAGLCLFPLDKVHAKMEANRNACYTGTREARDIFYKPFHGDIQCGGHAPGSSKSFPCGSEHLPYPLGSRDGLRGTAVLQRGGLNLTAVTVAAENNHTVAFLGTSDGRILKVYLTPDGTSSEYDSILVEINKRVKRDLVLSGDLGSLYAMTQDKVFRLPVQECLSYPTCTQCRDSQDPYCGWCVVEGRCTRKAECPRAEEASHWLWSRSKSCVAVTSAQPQNMSRRAQGEVQLTVSPLPALSEEDELLCLFGESPPHPARVEGEAVICNSPSSIPVTPPGQDHVAVTIQLLLRRGNIFLTSYQYPFYDCRQAMSLEENLPCISCVSNRWTCQWDLRYHECREASPNPEDGIVRAHMEDSCPQFLGPSPLVIPMNHETDVNFQGKNLDTVKGSSLHVGSDLLKFMEPVTMQESGTFAFRTPKLSHDANETLPLHLYVKSYGKNIDSKLHVTLYNCSFGRSDCSLCRAANPDYRCAWCGGQSRCVYEALCNTTSECPPPVITRIQPETGPLGGGIRITILGSNLGVQAGDIQRISVAGRNCSFQPERYSVSTRIVCVIEAAETPFTGGVEVDVFGKLGRSPPNVQFTFQQPKPLSVEPQQGPQAGGTTLTIHGTHLDTGSQEDVRVTLNGVPCKVTKFGAQLQCVTGPQATRGQMLLEVSYGGSPVPNPGIFFTYRENPVLRAFEPLRSFASGGRSINVTGQGFSLIQRFAMVVIAEPLQSWQPPREAESLQPMTVVGTDYVFHNDTKVVFLSPAVPEEPEAYNLTVLIEMDGHRALLRTEAGAFEYVPDPTFENFTGGVKKQVNKLIHARGTNLNKAMTLQEAEAFVGAERCTMKTLTETDLYCEPPEVQPPPKRRQKRDTTHNLPEFIVKFGSREWVLGRVEYDTRVSDVP
modifications: bait human Fc-tagged dimer
B10: ADP366 (protein)
chain: MESKGASSCRLLFCLLISATVFRPGLGWYTVNSAYGDTIIIPCRLDVPQNLMFGKWKYEKPDGSPVFIAFRSSTKKSVQYDDVPEYKDRLNLSENYTLSISNARISDEKRFVCMLVTEDNVFEAPTIVKVFKQPSKPEIVSKALFLETEQLKKLGDCISEDSYPDGNITWYRNGKVLHPLEGAVVIIFKKEMDPVTQLYTMTSTLEYKTTKADIQMPFTCSVTYYGPSGQKTIHSEQAVFDIYYPTEQVTIQVLPPKNAIKEGDNITLKCLGNGNPPPEEFLFYLPGQPEGIRSSNTYTLTDVRRNATGDYKCSLIDKKSMIASTAITVHYLDLSLNPSGEVTRQIGDALPVSCTISASRNATVVWMKDNIRLRSSPSFSSLHYQDAGNYVCETALQEVEGLKKRESLTLIVEGKPQIKMTKKTDPSGLSKTIICHVEGFPKPAIQWTITGSGSVINQTEESPYINGRYYSKIIISPEENVTLTCTAENQLERTVNSLNVSAISIPEHDEADEISDENREKVNDQAK
modifications: bait human Fc-tagged dimer
B11: ADP338 (protein)
chain: MAPRAARAPATLLLALGAVLWPAAGAWELTILHTNDVHSRLEQTSEDSSKCVNASRCMGGVARLFTKVQQIRRAEPNVLLLDAGDQYQGTIWFTVYKGAEVAHFMNALRYDAMALGNHEFDNGVEGLIEPLLKEAKFPILSANIKAKGPLASQISGLYLPYKVLPVGDEVVGIVGYTSKETPFLSNPGTNLVFEDEITALQPEVDKLKTLNVNKIIALGHSGFEMDKLIAQKVRGVDVVVGGHSNTFLYTGNPPSKEVPAGKYPFIVTSDDGRKVPVVQAYAFGKYLGYLKIEFDERGNVISSHGNPILLNSSIPEDPSIKADINKWRIKLDNYSTQELGKTIVYLDGSSQSCRFRECNMGNLICDAMINNNLRHTDEMFWNHVSMCILNGGGIRSPIDERNNGTITWENLAAVLPFGGTFDLVQLKGSTLKKAFEHSVHRYGQSTGEFLQVGGIHVVYDLSRKPGDRVVKLDVLCTKCRVPSYDPLKMDEVYKVILPNFLANGGDGFQMIKDELLRHDSGDQDINVVSTYISKMKVIYPAVEGRIKFSTGS
modifications: bait human Fc-tagged dimer
B12: ADP389 (protein)
chain: PSSLSQEQSEQDAIYQNLTQLKAAVGELSEKSKLQEIYQELTQLKAAVGELPEKSKLQEIYQELTRLKAAVGELPEKSKLQEIYQELTRLKAAVGELPEKSKLQEIYQELTRLKAAVGELPEKSKLQEIYQELTELKAAVGELPEKSKLQEIYQELTQLKAAVGELPDQSKQQQIYQELTDLKTAFERLCRHCPKDWTFFQGNCYFMSNSQRNWHDSVTACQEVRAQLVVIKTAEEQNFLQLQTSRSNRFSWMGLSDLNQEGTWQWVDGSPLSPSFQRYWNSGEPNNSGNEDCAEFSGSGWNDNRCDVDNYWICKKPAACFRDE
modifications: bait human Fc-tagged dimer

The target of the assay is Circumsporozoite protein (CSP) (Plasmodium falciparum (isolate 3D7), UniProt Q7K740). Nature of the assay: AVEXIS screen signal:noise (double-corrected).
Circumsporozoite protein (CSP), sequence (Q7K740 19-374): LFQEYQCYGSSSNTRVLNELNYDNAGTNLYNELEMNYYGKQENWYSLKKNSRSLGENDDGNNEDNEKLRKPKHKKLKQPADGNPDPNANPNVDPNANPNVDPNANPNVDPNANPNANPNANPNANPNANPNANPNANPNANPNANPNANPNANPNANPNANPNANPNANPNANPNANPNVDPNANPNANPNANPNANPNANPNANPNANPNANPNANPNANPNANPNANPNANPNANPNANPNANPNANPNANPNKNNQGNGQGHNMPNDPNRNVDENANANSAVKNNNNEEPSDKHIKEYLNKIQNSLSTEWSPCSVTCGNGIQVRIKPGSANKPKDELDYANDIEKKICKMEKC
On to B1, for which the binding score turned out to be 1.1.
In turn, B2 registered a binding score of 2.67.
Under B3 stands 0.706; under B4, 1.12.
The figure for B5 is 0.576.
Molecule B6 yielded a binding score of 2.12.
Regarding B7, the binding score is 1.58.
Under B8 stands 2.59; under B9, 0.742.
The molecule B10 displayed a binding score of 3.25.
In the case of B11, the binding score is 1.27.
B12 displayed a binding score of 0.72.

(Values after publication PMC11098746 (2024).)
